# Results published in the supplement of paper PMC7125110.
# ± gives the standard error. Variants at the floor of the assay were thinned out.
# B1: glmS ribozyme (parent)
# chain: AUAAAAGCGCCAGAACUACAGAAAUGUAGUUGACGAGGAGGAGGUUUAUCGAAUUUUCGGCGGAUGCCUCCAAA
# How the values were obtained:
# Conditions in all cases: with glucosamine-6-phosphate
# glucosamine-6-phosphate [1] = variants of: B1; assay: self-cleavage kobs at 40 uM GlcN6P; higher = faster cleavage; RNA array
# Summary of the method: (§1)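 In situ transcription by E. coli RNA polymerase produced barcoded ribozyme variants on sequenced MiSeq chips, and a hybridised Cy3 probe tracked them at 37 °C. Glucosamine-6-phosphate was flowed in at 40 μM to 10 mM in HEPES/KCl/Mg(OAc)2 buffer. kcat and KM were taken from weighted Michaelis–Menten fits of kobs values from exponential decay fits.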
# glucosamine-6-phosphate [2] = variants of: B1; assay: self-cleavage kobs at 160 uM GlcN6P; higher = faster cleavage; RNA array
# Summary of the method: as §1
# glucosamine-6-phosphate [3] = variants of: B1; assay: self-cleavage kobs at 640 uM GlcN6P; higher = faster cleavage; RNA array
# Summary of the method: as §1
# glucosamine-6-phosphate [4] = variants of: B1; assay: self-cleavage kobs at 2500 uM GlcN6P; higher = faster cleavage; RNA array
# Summary of the method: as §1
# glucosamine-6-phosphate [5] = variants of: B1; assay: self-cleavage kobs at 10000 uM GlcN6P; higher = faster cleavage; RNA array
# Summary of the method: as §1
Variant,self-cleavage kobs at 40 uM GlcN6P (glucosamine-6-phosphate [1]),self-cleavage kobs at 160 uM GlcN6P (glucosamine-6-phosphate [2]),self-cleavage kobs at 640 uM GlcN6P (glucosamine-6-phosphate [3]),self-cleavage kobs at 2500 uM GlcN6P (glucosamine-6-phosphate [4]),self-cleavage kobs at 10000 uM GlcN6P (glucosamine-6-phosphate [5])
U55C G63U,< 1e-05 s⁻¹,,,,
A52G G60C,< 1e-05 s⁻¹,< 1e-05 s⁻¹,< 1e-05 s⁻¹,< 1e-05 s⁻¹,
C50U C61G G63U,< 1e-05 s⁻¹,,,,
G59C U65G,< 1e-05 s⁻¹,,< 1e-05 s⁻¹,,< 1e-05 s⁻¹
G59C U65A,< 1e-05 s⁻¹,< 1e-05 s⁻¹,< 1e-05 s⁻¹,,< 1e-05 s⁻¹
C50U U57A G60U,< 1e-05 s⁻¹,,,,< 1e-05 s⁻¹
C50A G51C,< 1e-05 s⁻¹,,,,< 1e-05 s⁻¹
G60A A64C,< 1e-05 s⁻¹,,< 1e-05 s⁻¹,,
U54G U56G G63A C67U,< 1e-05 s⁻¹,,,,< 1e-05 s⁻¹
G62A C71A,< 1e-05 s⁻¹,,,,< 1e-05 s⁻¹
G60U G62A C70U,< 1e-05 s⁻¹,,,,< 1e-05 s⁻¹
A52G U54G C61G,< 1e-05 s⁻¹,,,,
C61A G62U,< 1e-05 s⁻¹,< 1e-05 s⁻¹,< 1e-05 s⁻¹,,< 1e-05 s⁻¹
A53C G62A,< 1e-05 s⁻¹,,,,< 1e-05 s⁻¹
G51C A53C,< 1e-05 s⁻¹,,< 1e-05 s⁻¹,,
G51C A53U,< 1e-05 s⁻¹,< 1e-05 s⁻¹,,< 1e-05 s⁻¹,
C61G U65C G66A,< 1e-05 s⁻¹,,,,< 1e-05 s⁻¹
C61G C71G,3.55e-05 ± 1.3e-05 s⁻¹,0.000119 ± 3e-05 s⁻¹,7.69e-05 ± 2.5e-05 s⁻¹,4.16e-05 ± 1.6e-05 s⁻¹,
G60U G62U,< 1e-05 s⁻¹,< 1e-05 s⁻¹,< 1e-05 s⁻¹,< 1e-05 s⁻¹,< 1e-05 s⁻¹
C61A U65C C70U,< 1e-05 s⁻¹,,,,< 1e-05 s⁻¹
C58A U65A C67G,< 1e-05 s⁻¹,,,,
U56A U69C,0.000222 ± 5.9e-05 s⁻¹,0.000288 ± 6e-05 s⁻¹,0.000693 ± 0.00019 s⁻¹,0.000572 ± 0.00015 s⁻¹,0.00286 ± 0.00081 s⁻¹

Variant,self-cleavage kobs at 40 uM GlcN6P (glucosamine-6-phosphate [1]),self-cleavage kobs at 160 uM GlcN6P (glucosamine-6-phosphate [2]),self-cleavage kobs at 640 uM GlcN6P (glucosamine-6-phosphate [3]),self-cleavage kobs at 2500 uM GlcN6P (glucosamine-6-phosphate [4]),self-cleavage kobs at 10000 uM GlcN6P (glucosamine-6-phosphate [5])
A53C C58A G60U,< 1e-05 s⁻¹,,,,
G51C G59U,< 1e-05 s⁻¹,< 1e-05 s⁻¹,< 1e-05 s⁻¹,,
G51C C61A,< 1e-05 s⁻¹,,< 1e-05 s⁻¹,< 1e-05 s⁻¹,< 1e-05 s⁻¹
U57G C61U,< 1e-05 s⁻¹,,,,
G59C C61G,< 1e-05 s⁻¹,< 1e-05 s⁻¹,,,< 1e-05 s⁻¹
G51U A53C C67G,< 1e-05 s⁻¹,,,,
U49G U55G U65G,< 1e-05 s⁻¹,,,,6.42e-05 ± 1.5e-05 s⁻¹
C61U U65A,< 1e-05 s⁻¹,,< 1e-05 s⁻¹,,< 1e-05 s⁻¹
A53G C67A C70U,0.000161 ± 2.5e-05 s⁻¹,,,,0.00035 ± 9e-05 s⁻¹
U54G U56C,6.58e-05 ± 1.3e-05 s⁻¹,0.000146 ± 2.8e-05 s⁻¹,0.000986 ± 0.00024 s⁻¹,0.00123 ± 0.00029 s⁻¹,0.00518 ± 0.0011 s⁻¹
U55G U57G C67U,< 1e-05 s⁻¹,,,,
A52C U56C,< 1e-05 s⁻¹,,,< 1e-05 s⁻¹,
A53G C71U,0.000921 ± 0.00014 s⁻¹,0.0017 ± 0.00029 s⁻¹,0.00661 ± 0.0013 s⁻¹,,0.0402 ± 0.013 s⁻¹
G66A C70A,8.27e-05 ± 1.4e-05 s⁻¹,7.28e-05 ± 2.8e-05 s⁻¹,0.000708 ± 0.00013 s⁻¹,0.00036 ± 8.5e-05 s⁻¹,0.000947 ± 0.00015 s⁻¹
G66A C70G,8.19e-05 ± 1.3e-05 s⁻¹,7.92e-05 ± 2.2e-05 s⁻¹,0.000305 ± 7.2e-05 s⁻¹,0.000267 ± 7.7e-05 s⁻¹,0.00273 ± 0.00055 s⁻¹
G60C G66U,< 1e-05 s⁻¹,,< 1e-05 s⁻¹,< 1e-05 s⁻¹,
C50G C70A C71G,7.15e-05 ± 1.7e-05 s⁻¹,,,,6.95e-05 ± 1.6e-05 s⁻¹
C50A G63C,< 1e-05 s⁻¹,< 1e-05 s⁻¹,,,< 1e-05 s⁻¹
U49G A53U U56A C67A C70A,4.31e-05 ± 1.9e-05 s⁻¹,,,0.000146 ± 2.4e-05 s⁻¹,
A52C U55A,< 1e-05 s⁻¹,,,,3.4e-05 ± 1.3e-05 s⁻¹
G59A G63C,< 1e-05 s⁻¹,< 1e-05 s⁻¹,< 1e-05 s⁻¹,< 1e-05 s⁻¹,
C68U C70A C71U,< 1e-05 s⁻¹,,,< 1e-05 s⁻¹,< 1e-05 s⁻¹

Variant,self-cleavage kobs at 40 uM GlcN6P (glucosamine-6-phosphate [1]),self-cleavage kobs at 160 uM GlcN6P (glucosamine-6-phosphate [2]),self-cleavage kobs at 640 uM GlcN6P (glucosamine-6-phosphate [3]),self-cleavage kobs at 2500 uM GlcN6P (glucosamine-6-phosphate [4]),self-cleavage kobs at 10000 uM GlcN6P (glucosamine-6-phosphate [5])
U56C U57G,< 1e-05 s⁻¹,,,2.91e-05 ± 1.2e-05 s⁻¹,8.26e-05 ± 2.1e-05 s⁻¹
U56G C71A,8.72e-05 ± 1.6e-05 s⁻¹,0.000152 ± 4.1e-05 s⁻¹,0.000589 ± 0.00013 s⁻¹,0.000518 ± 0.00011 s⁻¹,0.00215 ± 0.0004 s⁻¹
U56G C71U,0.000303 ± 4.6e-05 s⁻¹,0.000762 ± 0.00016 s⁻¹,0.00222 ± 0.00042 s⁻¹,0.00323 ± 0.00056 s⁻¹,0.0163 ± 0.0024 s⁻¹
A53C U57C,< 1e-05 s⁻¹,,,4.1e-05 ± 1.6e-05 s⁻¹,4.63e-05 ± 1.2e-05 s⁻¹
U56C C68U,< 1e-05 s⁻¹,,< 1e-05 s⁻¹,,
A53U U54A C68U,0.00036 ± 9.6e-05 s⁻¹,,,,0.013 ± 0.0042 s⁻¹
C50U A52C,< 1e-05 s⁻¹,< 1e-05 s⁻¹,,< 1e-05 s⁻¹,< 1e-05 s⁻¹
G59A G60U C61A,< 1e-05 s⁻¹,,< 1e-05 s⁻¹,< 1e-05 s⁻¹,
U54G U65G C67G,3.01e-05 ± 1.5e-05 s⁻¹,,,,0.00213 ± 0.00029 s⁻¹
G51C G60U A64U,< 1e-05 s⁻¹,,,,
U56C C61G,< 1e-05 s⁻¹,,,< 1e-05 s⁻¹,< 1e-05 s⁻¹
C58A G59U C68U,< 1e-05 s⁻¹,,,,
U55G C70U,0.0011 ± 0.00013 s⁻¹,0.00151 ± 0.00031 s⁻¹,0.0043 ± 0.0011 s⁻¹,,
U56A C68U,0.000143 ± 2.2e-05 s⁻¹,0.000404 ± 8.3e-05 s⁻¹,0.000955 ± 0.00014 s⁻¹,0.00101 ± 0.00018 s⁻¹,0.00472 ± 0.00088 s⁻¹
C50G G59U C67G,0.000108 ± 1.9e-05 s⁻¹,,,0.000245 ± 5.2e-05 s⁻¹,5.5e-05 ± 1.5e-05 s⁻¹
U55G C61A G66C C70A,0.000162 ± 4.4e-05 s⁻¹,0.000108 ± 2.1e-05 s⁻¹,0.000153 ± 3.1e-05 s⁻¹,8.3e-05 ± 1.7e-05 s⁻¹,
A52G U65A U69G C70U,5.09e-05 ± 1.9e-05 s⁻¹,,,,3.34e-05 ± 1.4e-05 s⁻¹
G60C C71G,< 1e-05 s⁻¹,< 1e-05 s⁻¹,,,< 1e-05 s⁻¹
G63A A64C,< 1e-05 s⁻¹,< 1e-05 s⁻¹,< 1e-05 s⁻¹,< 1e-05 s⁻¹,
U55A C68U,0.000668 ± 0.00012 s⁻¹,0.000841 ± 0.00019 s⁻¹,0.00148 ± 0.00045 s⁻¹,0.00477 ± 0.00099 s⁻¹,0.0158 ± 0.004 s⁻¹
U56A C67U,0.000175 ± 1.9e-05 s⁻¹,0.000452 ± 6.1e-05 s⁻¹,0.000938 ± 8.9e-05 s⁻¹,0.00474 ± 0.00085 s⁻¹,0.00679 ± 0.0012 s⁻¹
G62U G63U C68G,< 1e-05 s⁻¹,,,,

Variant,self-cleavage kobs at 40 uM GlcN6P (glucosamine-6-phosphate [1]),self-cleavage kobs at 160 uM GlcN6P (glucosamine-6-phosphate [2]),self-cleavage kobs at 640 uM GlcN6P (glucosamine-6-phosphate [3]),self-cleavage kobs at 2500 uM GlcN6P (glucosamine-6-phosphate [4]),self-cleavage kobs at 10000 uM GlcN6P (glucosamine-6-phosphate [5])
U54A C70G,6.49e-05 ± 8.1e-06 s⁻¹,6.78e-05 ± 1e-05 s⁻¹,0.00033 ± 5.7e-05 s⁻¹,0.000176 ± 2.2e-05 s⁻¹,0.000131 ± 1.5e-05 s⁻¹
G60C U65G,< 1e-05 s⁻¹,< 1e-05 s⁻¹,< 1e-05 s⁻¹,,< 1e-05 s⁻¹
U55G C71U,0.00104 ± 0.00015 s⁻¹,0.00128 ± 0.00022 s⁻¹,0.00353 ± 0.0005 s⁻¹,0.0044 ± 0.00066 s⁻¹,0.034 ± 0.0078 s⁻¹
C61U G63A,< 1e-05 s⁻¹,< 1e-05 s⁻¹,< 1e-05 s⁻¹,,< 1e-05 s⁻¹
A52G G62C,< 1e-05 s⁻¹,< 1e-05 s⁻¹,< 1e-05 s⁻¹,,< 1e-05 s⁻¹
A53U C68U,0.000159 ± 2.1e-05 s⁻¹,0.000357 ± 0.00011 s⁻¹,0.000788 ± 9.5e-05 s⁻¹,0.00421 ± 0.00073 s⁻¹,0.00507 ± 0.00083 s⁻¹
U49C G59C,< 1e-05 s⁻¹,,,< 1e-05 s⁻¹,< 1e-05 s⁻¹
G51C A64U,< 1e-05 s⁻¹,< 1e-05 s⁻¹,< 1e-05 s⁻¹,,< 1e-05 s⁻¹
G51A G62C,< 1e-05 s⁻¹,< 1e-05 s⁻¹,< 1e-05 s⁻¹,< 1e-05 s⁻¹,< 1e-05 s⁻¹
U55A G62U,< 1e-05 s⁻¹,,< 1e-05 s⁻¹,< 1e-05 s⁻¹,< 1e-05 s⁻¹
G51A U54A U55A,< 1e-05 s⁻¹,,,,
U57G G62A,< 1e-05 s⁻¹,,,,< 1e-05 s⁻¹
G59A U65G,< 1e-05 s⁻¹,,,,
U69A,0.000341 ± 7.7e-05 s⁻¹,0.000534 ± 0.00018 s⁻¹,0.000282 ± 3.1e-05 s⁻¹,0.00219 ± 0.0004 s⁻¹,0.000299 ± 4.6e-05 s⁻¹
U69G,0.000371 ± 0.00012 s⁻¹,5.87e-05 ± 2.4e-06 s⁻¹,0.000488 ± 0.00012 s⁻¹,0.00011 ± 4.1e-05 s⁻¹,0.000467 ± 7.8e-05 s⁻¹
C50U G51U,< 1e-05 s⁻¹,,,,< 1e-05 s⁻¹
G51U G62C,< 1e-05 s⁻¹,,< 1e-05 s⁻¹,< 1e-05 s⁻¹,< 1e-05 s⁻¹
U54C U56A,0.000356 ± 6.9e-05 s⁻¹,0.000584 ± 0.00011 s⁻¹,0.00291 ± 0.00036 s⁻¹,0.00483 ± 0.00092 s⁻¹,0.0163 ± 0.0038 s⁻¹
U56G G63C,< 1e-05 s⁻¹,< 1e-05 s⁻¹,< 1e-05 s⁻¹,,< 1e-05 s⁻¹
G51A U65A,< 1e-05 s⁻¹,,,< 1e-05 s⁻¹,< 1e-05 s⁻¹
G51A U65C,< 1e-05 s⁻¹,,,,< 1e-05 s⁻¹
C50G C71A,0.00184 ± 0.00076 s⁻¹,0.000128 ± 1.3e-05 s⁻¹,0.000215 ± 2e-05 s⁻¹,0.000153 ± 1.4e-05 s⁻¹,
